According to IntAct's records for PubMed 19940246:

B1: DNA-directed RNA polymerase subunit beta (Bacillus subtilis), P37870 (parent)
chain: MTGQLVQYGRHRQRRSYARISEVLELPNLIEIQTSSYQWFLDEGLREMFQDISPIEDFTGNLSLEFIDYSLGEPKYPVEESKERDVTYSAPLRVKVRLINKETGEVKDQDVFMGDFPIMTDTGTFIINGAERVIVSQLVRSPSVYFSGKVDKNGKKGFTATVIPNRGAWLEYETDAKDVVYVRIDRTRKLPVTVLLRALGFGSDQEILDLIGENEYLRNTLDKDNTENSDKALLEIYERLRPGEPPTVENAKSLLDSRFFDPKRYDLANVGRYKINKKLHIKNRLFNQRLAETLVDPETGEILAEKGQILDRRTLDKVLPYLENGIGFRKLYPNGGVVEDEVTLQSIKIFAPTDQEGEQVINVIGNAYIEEEIKNITPADIISSISYFFNLLHGVGDTDDIDHLGNRRLRSVGELLQNQFRIGLSRMERVVRERMSIQDTNTITPQQLINIRPVIASIKEFFGSSQLSQFMDQTNPLAELTHKRRLSALGPGGLTRERAGMEVRDVHYSHYGRMCPIETPEGPNIGLINSLSSYAKVNRFGFIETPYRRVDPETGKVTGRIDYLTADEEDNYVVAQANARLDDEGAFIDDSIVARFRGENTVVSRNRVDYMDVSPKQVVSAATACIPFLENDDSNRALMGANMQRQAVPLMQPEAPFVGTGMEYVSGKDSGAAVICKHPGIVERVEAKNVWVRRYEEVDGQKVKGNLDKYSLLKFVRSNQGTCYNQRPIVSVGDEVVKGEILADGPSMELGELALGRNVMVGFMTWDGYNYEDAIIMSERLVKDDVYTSIHIEEYESEARDTKLGPEEITRDIPNVGEDALRNLDDRGIIRIGAEVKDGDLLVGKVTPKGVTELTAEERLLHAIFGEKAREVRDTSLRVPHGGGGIIHDVKVFNREDGDELPPGVNQLVRVYIVQKRKISEGDKMAGRHGNKGVISKILPEEDMPYLPDGTPIDIMLNPLGVPSRMNIGQVLELHMGMAARYLGIHIASPVFDGAREEDVWETLEEAGMSRDAKTVLYDGRTGEPFDNRVSVGIMYMIKLAHMVDDKLHARSTGPYSLVTQQPLGGKAQFGGQRFGEMEVWALEAYGAAYTLQEILTVKSDDVVGRVKTYEAIVKGDNVPEPGVPESFKVLIKELQSLGMDVKILSGDEEEIEMRDLEDEEDAKQADGLALSGDEEPEETASADVERDVVTKE
partner: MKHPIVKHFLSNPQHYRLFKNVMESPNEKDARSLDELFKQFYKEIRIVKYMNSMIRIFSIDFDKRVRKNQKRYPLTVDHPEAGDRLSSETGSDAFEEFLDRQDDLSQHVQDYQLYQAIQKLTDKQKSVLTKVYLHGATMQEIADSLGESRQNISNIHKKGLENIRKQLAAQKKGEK
B2: Sigma-O factor regulatory protein RsoA (Bacillus subtilis), C0H3R4 (parent)
chain: MDGQFEQKKKQKDETYDIEHLIACFSPMIRKKLSNTSYQEREDLEQELKIKMFEKADMLLCQDVPGFWEFILYMVDENS

Variants of: B1
Settings: with sigo_bacsu sigO

Variant | effect of a mutation on the interaction
F865K | decreasing interaction
I864K | disrupting interaction

Variants of: B2
Settings: with rpoc_bacsu rpoC

Variant | effect of a mutation on the interaction
MDGQFEQKKKQKDETYDIEHLIACFSPMIRKKLSNTSYQEAEDLEQELKIKMFEKADMLLCQDVPGFWEFILYMVDENS [R41A] | decreasing interaction
MDGQFEQKKKQKDETYDIEHLIACFSPMIRKKLSNTSYQEREDEEQELKIKMFEKADMLLCQDVPGFWEFILYMVDENS [L44E] | decreasing interaction strength
MDGQFEQKKKQKDETYDIEHLIACFSPMIRKKLSNTSYQEREDAEQELKIKMFEKADMLLCQDVPGFWEFILYMVDENS [L44A] | decreasing interaction strength
MDGQFEQKKKQKDETYDIEHLIACFSPMIRKKLSNTSYQEREALEQELKIKMFEKADMLLCQDVPGFWEFILYMVDENS [D43A] | decreasing interaction strength
MDGQFEQKKKQKDETYDIEHLIACFSPMIRKKLSNTSYQERENLEQELKIKMFEKADMLLCQDVPGFWEFILYMVDENS [D43N] | decreasing interaction strength
MDGQFEQKKKQKDETYDIEHLIACFSPMIRKKLSNTSYQEREDLEEELKIKMFEKADMLLCQDVPGFWEFILYMVDENS [Q46E] | decreasing interaction strength
MDGQFEQKKKQKDETYDIEHLIACFSPMIRKKLSNTSYQEREDLEAELKIKMFEKADMLLCQDVPGFWEFILYMVDENS [Q46A] | decreasing interaction strength
